Laboratory results from paper PMC5494602.

Target: Flag-TRAF3 (TNF receptor-associated factor 3, full length) (human (by the printed RefSeq NM_145725)) (UniProt Q13114)
Test: co-IP

Chain of UniProt Q13114 (Q13114 whole entry): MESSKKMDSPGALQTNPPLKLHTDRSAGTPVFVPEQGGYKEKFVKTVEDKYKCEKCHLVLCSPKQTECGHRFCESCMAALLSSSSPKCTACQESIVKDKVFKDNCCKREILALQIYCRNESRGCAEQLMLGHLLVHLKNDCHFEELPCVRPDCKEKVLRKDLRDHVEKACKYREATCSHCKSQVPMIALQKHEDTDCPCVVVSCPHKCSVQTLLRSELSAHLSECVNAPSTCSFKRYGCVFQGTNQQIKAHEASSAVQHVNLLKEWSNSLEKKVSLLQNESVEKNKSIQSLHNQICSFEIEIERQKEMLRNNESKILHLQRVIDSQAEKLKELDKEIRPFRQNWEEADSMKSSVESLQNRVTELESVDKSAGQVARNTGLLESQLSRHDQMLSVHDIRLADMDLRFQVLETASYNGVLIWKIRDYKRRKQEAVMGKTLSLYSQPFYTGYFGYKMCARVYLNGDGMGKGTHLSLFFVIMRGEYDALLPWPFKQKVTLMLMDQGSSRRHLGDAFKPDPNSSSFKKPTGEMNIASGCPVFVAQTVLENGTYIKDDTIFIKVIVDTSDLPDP

Substance	fold decrease of the MAVS-TRAF3 co-precipitate [fold]
HA-NS1 (wild-type NS1 of H5N1/HM) (natural protein)	8.5
HA-NS1/126-225 (C-terminal effector domain fragment of H5N1/HM NS1) (domain or fragment)	4.6
